Measured values taken from patent US20250011379A1 (VERTEX PHARMACEUTICALS, published 2025).
One block for each binder: values may come before it.

Molecular target: soluble human C3b (human, UniProt P01024 23-1663, limits assumed)
Experiment: cell-based or functional assay

Chain of soluble human C3b (P01024 23-1663 limits assumed): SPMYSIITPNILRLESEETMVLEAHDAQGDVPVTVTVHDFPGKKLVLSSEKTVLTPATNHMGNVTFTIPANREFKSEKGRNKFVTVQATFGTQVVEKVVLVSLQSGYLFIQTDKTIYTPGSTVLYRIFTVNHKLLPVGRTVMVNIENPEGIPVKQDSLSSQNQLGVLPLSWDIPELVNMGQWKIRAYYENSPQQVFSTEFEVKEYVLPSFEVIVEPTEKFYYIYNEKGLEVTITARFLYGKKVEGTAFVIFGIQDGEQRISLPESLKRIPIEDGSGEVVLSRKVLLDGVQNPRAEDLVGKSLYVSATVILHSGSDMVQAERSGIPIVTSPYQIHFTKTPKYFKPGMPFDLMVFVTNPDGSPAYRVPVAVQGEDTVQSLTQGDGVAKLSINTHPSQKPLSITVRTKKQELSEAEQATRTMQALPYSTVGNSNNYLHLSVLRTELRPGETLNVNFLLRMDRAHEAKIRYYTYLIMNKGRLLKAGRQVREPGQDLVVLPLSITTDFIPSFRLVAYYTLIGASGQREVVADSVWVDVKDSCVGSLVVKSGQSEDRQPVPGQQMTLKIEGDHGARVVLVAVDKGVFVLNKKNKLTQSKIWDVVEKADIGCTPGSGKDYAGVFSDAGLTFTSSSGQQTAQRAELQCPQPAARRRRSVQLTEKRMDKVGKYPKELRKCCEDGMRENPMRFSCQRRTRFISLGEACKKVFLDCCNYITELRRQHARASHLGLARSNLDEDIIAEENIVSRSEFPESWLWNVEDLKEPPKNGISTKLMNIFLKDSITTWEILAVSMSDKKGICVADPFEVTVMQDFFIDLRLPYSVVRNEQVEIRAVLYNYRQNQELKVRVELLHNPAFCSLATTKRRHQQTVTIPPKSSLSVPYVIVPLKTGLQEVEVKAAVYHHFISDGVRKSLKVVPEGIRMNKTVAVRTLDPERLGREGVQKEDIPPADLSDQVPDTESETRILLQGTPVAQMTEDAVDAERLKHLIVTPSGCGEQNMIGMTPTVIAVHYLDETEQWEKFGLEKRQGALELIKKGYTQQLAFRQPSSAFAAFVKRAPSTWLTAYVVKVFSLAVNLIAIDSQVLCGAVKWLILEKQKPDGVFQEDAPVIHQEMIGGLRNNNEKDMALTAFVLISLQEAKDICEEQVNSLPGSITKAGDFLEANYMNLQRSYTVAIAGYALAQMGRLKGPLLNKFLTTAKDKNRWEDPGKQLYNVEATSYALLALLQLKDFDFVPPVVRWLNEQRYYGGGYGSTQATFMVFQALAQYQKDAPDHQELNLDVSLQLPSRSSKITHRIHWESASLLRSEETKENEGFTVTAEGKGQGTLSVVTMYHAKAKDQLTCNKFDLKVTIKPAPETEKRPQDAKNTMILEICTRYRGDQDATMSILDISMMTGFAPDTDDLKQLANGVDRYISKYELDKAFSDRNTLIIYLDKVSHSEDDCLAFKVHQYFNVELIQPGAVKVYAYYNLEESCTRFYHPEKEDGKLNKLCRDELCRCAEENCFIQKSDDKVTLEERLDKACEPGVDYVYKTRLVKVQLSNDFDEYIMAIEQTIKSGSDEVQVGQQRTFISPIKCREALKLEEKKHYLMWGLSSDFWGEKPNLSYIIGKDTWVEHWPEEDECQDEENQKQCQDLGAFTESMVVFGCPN

iC3b EC50: 50.1 nM
B1: Const. No. 94: hCFI-PD (wild type plasma-derived human CFI) (enzyme)
chain: KVTYTSQEDLVEKKCLAKKYTHLSCDKVFCQPWQRCIEGTCVCKLPYQCPKNGTAVCATNRRSFPTYCQQKSLECLHPGTKFLNNGTCTAEGKFSVSLKHGNTDSEGIVEVKLVDQDKTMFICKSSWSMREANVACLDLGFQQGADTQRRFKLSDLSINSTECLHVHCRGLETSLAECTFTKRRTMGYQDFADVVCYTQKADSPMDDFFQCVNGKYISQMKACDGINDCGDQSDELCCKACQGKGFHCKSGVCIPSQYQCNGEVDCITGEDEVGCAGFASVTQEETEILTADMDAERRRIKSLLPKLSCGVKNRMHIRRKRIVGGKRAQLGDLPWQVAIKDASGITCGGIYIGGCWILTAAHCLRASKTHRYQIWTTVVDWIHPDLKRIVIEYVDRIIFHENYNAGTYQNDIALIEMKKDGNKKDCELPRSIPACVPWSPYLFQPNDTCIVSGWGREKDNERVFSLQWGEVKLISNCSKFYGNRFYEKEMECAGTYDGSIDACKGDSGGPLVCMDANNVTYVWGVVSWGENCGKPEFPGVYTKVANYFDWISYHVGRPFISQYNV

iC3b EC50: 62.4 nM
B2: Const. No. 96: hCFI (wt hCFI, no signal sequence, no HSA) (enzyme)
chain: B1 chain
